# Laboratory results taken from paper PMC5015263, “Casitas B-lineage lymphoma linker helix mutations found in myeloproliferative neoplasms affect conformation” (BMC Biology, 2016).
# Changes are numbered by the printed parent chain. Names and notes keep the numbering of the source.
# B1: His-GST-N-Cbl wild-type (residues 47-435) (domain or fragment, UniProt P22681 47-435, looked up)
# chain: PPGTVDKKMVEKCWKLMDKVVRLCQNPKLALKNSPPYILDLLPDTYQHLRTILSRYEGKMETLGENEYFRVFMENLMKKTKQTISLFKEGKERMYEENSQPRRNLTKLSLIFSHMLAELKGIFPSGLFQGDTFRITKADAAEFWRKAFGEKTIVPWKSFRQALHEVHPISSGLEAMALKSTIDLTCNDYISVFEFDIFTRLFQPWSSLLRNWNSLAVTHPGYMAFLTYDEVKARLQKFIHKPGSYIFRLSCTRLGQWAIGYVTADGNILQTIPHNKPLFQALIDGFREGFYLFPDGRNQNPDLTGLCEPTPQDHIKVTQEQYELYCEMGSTFQLCKICAENDKDVKIEPCGHLMCTSCLTSWQESEGQGCPFCRCEIKGTEPIVVDPFD
# notes: Cbl (c-Cbl), N-terminal fragment with TKBD, linker helix region and RING domain (N-Cbl), residues 47-435; Modified pGEX4T1 with N-terminal His-GST tag followed by a thrombin or TEV cleavage site; tag not cleaved for SPR; also called WT; wild-type N-Cbl; not shown: His, N-terminal, kept; GST, N-terminal, kept
# B2: His-GST-pTyr371-N-Cbl Y368F (residues 47-435) (domain or fragment, UniProt P22681 47-435, looked up)
# chain: B1 chain with Y322F
# modifications: phosphotyrosine at 371
# notes: Cbl (c-Cbl), N-terminal fragment with TKBD, linker helix region and RING domain (N-Cbl), residues 47-435; Y368F is required for homogeneous phosphorylation at Tyr371; also called pY371 Y368F; source: generated as described previously [6]; not shown: His, N-terminal, kept; GST, N-terminal, kept
# B3: His-GST-N-Cbl M222E (residues 47-435) (domain or fragment, UniProt P22681 47-435, looked up)
# chain: B1 chain with M176E
# notes: Cbl (c-Cbl), N-terminal fragment with TKBD, linker helix region and RING domain (N-Cbl), residues 47-435; Tag not cleaved for SPR; not shown: His, N-terminal, kept; GST, N-terminal, kept
# B4: His-GST-N-Cbl Y371D (residues 47-435) (domain or fragment, UniProt P22681 47-435, looked up)
# chain: B1 chain with Y325D
# notes: Cbl (c-Cbl), N-terminal fragment with TKBD, linker helix region and RING domain (N-Cbl), residues 47-435; mutation identified in MDS/MPN clinical samples; Tag not cleaved for SPR; not shown: His, N-terminal, kept; GST, N-terminal, kept
# B5: His-GST-N-Cbl Y371H (residues 47-435) (domain or fragment, UniProt P22681 47-435, looked up)
# chain: B1 chain with Y325H
# notes: as for B4
# B6: His-GST-N-Cbl Y371C (residues 47-435) (domain or fragment, UniProt P22681 47-435, looked up)
# chain: B1 chain with Y325C
# notes: as for B4
# B7: His-GST-N-Cbl Y371S (residues 47-435) (domain or fragment, UniProt P22681 47-435, looked up)
# chain: B1 chain with Y325S
# notes: as for B4
# B8: His-GST-N-Cbl Y371F (residues 47-435) (domain or fragment, UniProt P22681 47-435, looked up)
# chain: B1 chain with Y325F
# notes: as for B3
# B9: His-GST-N-Cbl Y368F (residues 47-435) (domain or fragment, UniProt P22681 47-435, looked up)
# chain: B1 chain with Y322F
# notes: as for B3
# B10: His-GST-N-Cbl Y371E (residues 47-435) (domain or fragment, UniProt P22681 47-435, looked up)
# chain: B1 chain with Y325E
# notes: as for B3
# B11: His-GST-N-Cbl Y371A (residues 47-435) (domain or fragment, UniProt P22681 47-435, looked up)
# chain: B1 chain with Y325A
# notes: as for B3
# Molecular target: T1, UbcH5B S22R C85K–Ub (UniProt P62837 1-147; P0CG47 1-76, S22R | C85K, conjugated to Ub via an isopeptide bond (non-hydrolyzable amide linkage) | conjugated to UbcH5B via an isopeptide bond)
# T1 construct: E2 ubiquitin-conjugating enzyme UbcH5B; ubiquitin (Ub); also called UbcH5B–Ub; E2–Ub; source: expressed, generated and purified as described previously [7]
# Experiment: SPR; GST-Cbl variants coupled to CM-5 chips; UbcH5B–Ub as analyte at 0–120 μM; Biacore T200
# Details: both partners purified
row,Kd,Binder
1,84 µM,B1
2,2.6 µM,B2
3,14 µM,B3
4,10 µM,B4
5,39 µM,B5
6,36 µM,B6
7,16 µM,B7
8,84 µM,B8
9,49 µM,B9
10,9 µM,B10
11,30 µM,B11
